Results taken from the supplement of paper PMC10567573.
± gives the standard deviation.

Assay: protein stability index of a GFP-peptide fusion (GPS, HEK-293T) (PSI 1-6); higher = more stable
[1] = treatment: DMSO, c terminus: a fixed tail appended
[2] = treatment: MLN4924 1 uM, 8 h, c terminus: a fixed tail appended
[3] = treatment: DMSO, c terminus: native
[4] = treatment: MLN4924 1 uM, 8 h, c terminus: native
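Note: 24-mer peptide tiles fused after GFP, lentivirally expressed, FACS-sorted into six equal bins by GFP/DsRed ratio, decoded by Illumina sequencing, PSI is the read-weighted mean bin number.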

| Sequence | protein stability index [1] | protein stability index [2] | protein stability index [3] | protein stability index [4] |
| --- | --- | --- | --- | --- |
| REVEQWFATQTEELNKQVVSSSEQ [KRT33B] | 4.98 ± 0.23 | 4.87 ± 0.17 | – | – |
| FLTSRTRALLRRFPRMLLVDRLPG [ZSWIM9] | 2.57 ± 0.56 | 2.41 ± 0.39 | – | – |
| VRVCDLLLKKKPPQQQHHKAKRNR [ANKRD17] | 3.33 ± 0.39 | 3.38 ± 0.22 | – | – |
| LGSFESPANSETSDLTLYLVVAVA [PCDHGA10] | 2.66 ± 0.87 | 2.67 ± 0.48 | – | – |
| VQVENPERFSSAPCLLGSRVFSQG [TRIM35] | 3.09 ± 0.24 | 3.2 ± 0.22 | – | – |
| PHKTFRKLRLFDTPHTPKSLLSKA [WEE1] | 2.82 ± 0.35 | 2.98 ± 0.41 | – | – |
| DRSDYFAAWGARVFSFGKHYWELD [TRIM43] | 2.14 ± 0.44 | 2.15 ± 0.57 | – | – |
| EMAATPAGFAQLTHLLMGLAGGKL [HDAC6] | 2.26 ± 0.39 | 2.39 ± 0.22 | – | – |
| WLQKLCCPCCFGRDCLVLNQGYLS [PI4K2A] | 2.4 ± 0.45 | 2 ± 0.24 | – | – |
| RTVNALEIELQAQHNLRYSLENTL [KRT33B] | 2.31 ± 0.25 | 2.29 ± 0.22 | – | – |
| DMEKILEIIRVILKLYEQWKNFDE [CCNC] | 2.47 ± 0.2 | 2.66 ± 0.42 | – | – |
| NPFYHCLVAEILPAPGKLLGPCVV [SAT2] | 3.16 ± 0.97 | 3.07 ± 1.2 | – | – |
| PKKISDLDHCANRVLMYGSELDAD [TPH1] | 4.58 ± 0.083 | 4.47 ± 0.088 | – | – |
| LVDMDMADYSAALDPAYTTLEFEN [HNF4A] | 4.24 ± 0.19 | 4.35 ± 0.054 | – | – |
| EARKYASNLLKAGFIRHTVNKITF [DVL3] | 2.31 ± 0.48 | 2.16 ± 0.18 | – | – |
| SAAPGHPQDGSYPRQADHDDHECC [KCNA1] | 5.39 ± 0.4 | 5.6 ± 0.1 | – | – |
| TWGQIKKTTQEAEKLLERQGQAKT [CDK11A] | 4.98 ± 0.11 | 5.01 ± 0.072 | – | – |
| LLKQGYNKTLLRLRLRKERVSDVQ [PKD2L1] | 2.35 ± 0.28 | 2.44 ± 0.27 | – | – |
| LKYQAPDIDVQLSSELTDSLRTLK [NOP53] | 2.79 ± 0.14 | 3.14 ± 0.45 | – | – |
| ACGGLDNKCSVYPLTFDKNENMAA [GNB5] | 3.69 ± 0.093 | 3.43 ± 0.41 | – | – |
| PDVENEVKRLLRSDAEAVSTRWEV [TAF7L] | 3.24 ± 0.63 | 3.76 ± 0.65 | – | – |
| EERSPSFGEDYYGPSRSRHRRRSR [CLK3] | 5.32 ± 0.2 | 5.46 ± 0.062 | – | – |
| KESAQCVGDEFLNCKLATRAKDFL [SNX8] | 3.32 ± 0.2 | 3.21 ± 0.36 | – | – |

| Sequence | protein stability index [1] | protein stability index [2] | protein stability index [3] | protein stability index [4] |
| --- | --- | --- | --- | --- |
| IAVLPRYVEIRTFEPRLLVQSIEL [VPS39] | 2.97 ± 0.57 | 2.88 ± 0.38 | – | – |
| LLHSQARLAELEAQVRKLELERAQ [FBF1] | 3.68 ± 0.15 | 3.5 ± 0.58 | – | – |
| TSQKVARKFWWKNVKMIVLICVIV [VAMP8] | 2.42 ± 0.31 | 2.15 ± 0.29 | – | – |
| AISSPTVSRLTDTTKFTGSHKERF [TPPP] | 4.17 ± 0.26 | 4.29 ± 0.12 | – | – |
| AAGIGKLSTADGKAFADPEVLRRL [ANKRD17] | 4.2 ± 0.15 | 4.19 ± 0.41 | – | – |
| HFRPRFHPLPTVIIVNLLWFIHLV [TMEM192] | 2.63 ± 0.48 | 2.82 ± 0.79 | – | – |
| EDLTPEDDMPIGRNVLELNDVRQS [PTPRD] | 5.13 ± 0.3 | 5.19 ± 0.14 | – | – |
| PKGGQVQIVTKKIDLSHVTSKCGS [MAP2] | 3.92 ± 0.18 | 3.91 ± 0.37 | – | – |
| NVGGALYYTTMQTLTKQDTMLKAM [KCTD10] | 2.6 ± 0.35 | 2.38 ± 0.54 | – | – |
| RPELPPVCRARPRACSHLIRLMQR [RIPK4] | 2.52 ± 0.26 | 2.49 ± 0.31 | – | – |
| SFVDKLLDLMPRLMTSKPAEVVKI [INTS4] | 2.73 ± 0.64 | 2.61 ± 0.63 | – | – |
| SCYKGHREIARYLLEQGAQVNRRS [FEM1A] | 2.93 ± 0.14 | 3.11 ± 0.48 | – | – |
| DSSIIRTTQDLFAINRDTAFPGAS [RHOBTB3] | 3.91 ± 0.23 | 3.94 ± 0.23 | – | – |
| YEFHLEFLDLVKPEPVYKLTQRQV [HACD3] | 2.54 ± 0.63 | 2.12 ± 0.076 | – | – |
| TMPLYLEDDIRPDIKDDIYDPTYK [SCD] | 4.46 ± 0.3 | 4.68 ± 0.17 | – | – |
| LTLKVLRSSSCGDTELLGQATLPV [C2CD2L] | 2.16 ± 0.73 | 2.33 ± 0.34 | – | – |
| EHRRTARRTPPGQQRPHPRSHSRE [ELOA2] | 5.47 ± 0.14 | 5.32 ± 0.39 | – | – |
| PTLKKCEDVARPTQRLWDFTQSGP [GALNT9] | 3.69 ± 0.24 | 4 ± 0.17 | – | – |
| AEKIEYNESMKAYHNSPAYLAYIN [SMARCE1] | 3.31 ± 0.5 | 3.46 ± 0.31 | – | – |
| QNPGKFDELDMSPGDPKWLDVIER [TBC1D10A] | 4.27 ± 0.081 | 4.49 ± 0.28 | – | – |
| LNEEINIASSDSEVEIVGVQEHAR [C18orf25] | 5.27 ± 0.1 | 5.33 ± 0.18 | – | – |
| SAEKCGPPPPIDNGDITSFLLSVY [CFHR2] | 2.4 ± 0.16 | 2.33 ± 0.27 | – | – |
| LSEGCRAELAETIVYARVLALHPE [CCDC3] | 2.92 ± 1.4 | 1.83 ± 0.38 | – | – |

| Sequence | protein stability index [1] | protein stability index [2] | protein stability index [3] | protein stability index [4] |
| --- | --- | --- | --- | --- |
| WADAAGEAVPEGPDGGGPWLEDEP [ZSWIM9] | 5.62 ± 0.34 | 5.26 ± 0.47 | – | – |
| NYSYRGYGALSSNLQPPASLQTGN [NOL4L] | 3.64 ± 0.2 | 3.8 ± 0.25 | – | – |
| LHNLLLHQEGAKMAVRLAGGLQKM [CTNNB1] | 2.02 ± 0.22 | 2.36 ± 0.26 | – | – |
| EQQNQEYKILLDVKTRLEQEIATY [KRT17] | 3.44 ± 0.34 | 3.59 ± 0.56 | – | – |
| LANHTGYIKVDWQRVEKDMKKAKE [FUNDC2] | 4.11 ± 0.21 | 4.08 ± 0.19 | – | – |
| VGDLMGSLAYCLACGGGHLLPYFY [DHCR7] | 3.12 ± 0.28 | 3.47 ± 0.39 | – | – |
| SSRIEQGEWGGRHPSWPWTRCLRM | 2.5 ± 0.19 | 2.67 ± 0.38 | – | – |
| SIESIKWMIEEKATITSRGSSLSG [LURAP1L] | 3.1 ± 0.2 | 3.39 ± 0.41 | – | – |
| TDRPLLSTLEESVVRICCIRSFGH [SMG5] | 2.36 ± 0.24 | 2.08 ± 0.12 | – | – |
| GDSGERSEGEAMEICSEPVAASPA [ZNF511] | 5.47 ± 0.24 | 5.52 ± 0.26 | – | – |
| PACHSFNRAIHKKAKGTEAEEEY [FBXO34] | – | – | 5.25 ± 0.49 | 5.41 ± 0.34 |
| TEGPSLLNQKGTAVETEGSGSRHP [SLC2A12] | 5.43 ± 0.21 | 5.36 ± 0.43 | – | – |
| VLVAETTMARIRRVYVSGLMKGGA [APMAP] | 2.17 ± 0.27 | 2.1 ± 0.28 | – | – |
| HFKKTKKMGGKDFSFRYQQELEEE [ATL3] | 2.59 ± 0.56 | 3.54 ± 0.81 | – | – |
| RRSIRYGREVELKPYIAAHFDVLP [PTPRD] | 2.5 ± 0.41 | 2.46 ± 0.43 | – | – |
| RPLQVNTADHRIYSYVVSRPQPRG [FAF2] | 3.27 ± 0.43 | 3.49 ± 0.2 | – | – |
| HDGKPSEGSYRIHVLHHGTGKWYE [USP39] | 2.71 ± 0.2 | 2.88 ± 0.16 | – | – |
| EEAAFPGRRVNAKMPVYSGSRPAC [ELOA2] | 4.01 ± 0.093 | 3.98 ± 0.27 | – | – |
| HRQETVDCLKKFNARRKLKGAILT [CAMK2D] | 2.69 ± 0.52 | 2.71 ± 0.22 | – | – |
| AKLALYPCASLLAFASTCLLSRFS [TMEM175] | 2.45 ± 0.49 | 2.52 ± 0.52 | – | – |
| ASTVTEIVKQQDPLVYKAIQQGIN [ACSBG2] | 3.49 ± 0.3 | 3.96 ± 0.35 | – | – |
| FLTFDKQVLRFYAIWDDTDSMYGE [EFHC1] | 2.49 ± 0.41 | 2.46 ± 0.55 | – | – |
| AFFASHQCSNRIGSMKIKSSWDID [FBXO34] | 2.46 ± 0.15 | 2.42 ± 0.17 | – | – |

| Sequence | protein stability index [1] | protein stability index [2] | protein stability index [3] | protein stability index [4] |
| --- | --- | --- | --- | --- |
| CLRRCKRTLPAFQVPYPPRQLLRD [P3H4] | 2.16 ± 0.24 | 2.27 ± 0.24 | – | – |
| IQAINGESTELMTHLEAQNRIKGC [PDLIM4] | 4.1 ± 0.19 | 4.15 ± 0.14 | – | – |
| MMELGSRSRGASQKKQKLEQKAAG [FATE1] | 4.76 ± 0.19 | 4.87 ± 0.49 | – | – |
| GKTTIILRCLDRDEPSKPTLALEY [DYNC2LI1] | 2.25 ± 0.37 | 2.05 ± 0.29 | – | – |
| QRYILYWRKRFTEQPITDFCSVIR [ZNF277] | 1.93 ± 0.23 | 2.24 ± 0.26 | – | – |
| FDVAFIGSIMTVWLSTAPTEPLTH [CARM1] | 3.24 ± 0.64 | 2.88 ± 0.53 | – | – |
| YLSQTDGAGDWREKEAKDLTELVQ [FUT8] | 4.52 ± 0.27 | 4.7 ± 0.29 | – | – |
| TEAGGVLMDVTGGPFDLMSRRVIA [IMPA1] | 3.22 ± 0.61 | 3.37 ± 0.42 | – | – |
| KINLQGDIVDRGSTNLGVNQAGFT [ADD1] | 3.74 ± 0.25 | 3.83 ± 0.19 | – | – |
| ELQGFWMDIGQPKDFLTGMCLFLQ [GMPPB] | 2.19 ± 0.25 | 2.01 ± 0.35 | – | – |
| CSRTTGYQILTLEKDQEQVVMNLD [GMCL1] | 3.6 ± 0.52 | 3.43 ± 0.34 | – | – |
| ATIENNRVILEIDNARLAVDDFRL [KRT13] | 2.15 ± 0.16 | 2.31 ± 0.35 | – | – |
| VTPAQNNLLQPNFEAAFGTTPSTS [SNAP91] | 4.52 ± 0.13 | 4.62 ± 0.14 | – | – |
| CLRILMGELSNHHDHHDEFCLMP [BEX3] | – | – | 2.58 ± 0.69 | 2.27 ± 0.15 |
| HLEINPDHPIVETLRQKAEADKND [HSP90AB1] | 5.58 ± 0.2 | 5.56 ± 0.1 | – | – |
| CTGITRLQRWCRAKHMGLEPPPEV [POLD4] | 2.49 ± 0.31 | 2.96 ± 0.31 | – | – |
| SVAGWSLFSLNVISLTCVSVAFAV [SLC19A2] | 2.92 ± 0.15 | 3.21 ± 0.27 | – | – |
| TGREMHGKNWSKLCKDCQVIDGRN [TPPP] | 3.14 ± 0.16 | 3.49 ± 0.11 | – | – |
| YFFLCQPFREILCKKLHIPLKAQN [P2RY14] | 2.62 ± 0.75 | 1.99 ± 0.25 | – | – |
| ENLLLASKLKGAAVKLADFGLAIE [CAMK2A] | 2.35 ± 0.25 | 2.7 ± 0.29 | – | – |
